Experimental data published in paper PMC3523363 (Journal of medicinal chemistry, 2012).

Legend:
Spectroscopic studies = type: physicochemical; settings: in DMF; for фF (fluorescence quantum yield): calculated using ZnPc (Фf = 0.17) as the standard; for Emission: excitation at 670 nm
A431 cells = test: Phototoxicity, Cell Titer Blue assay; type: cell-based, human; settings: 24 h
Vero cells = test: Phototoxicity, Cell Titer Blue assay; type: cell-based, cercopithecus aethiops; settings: 24 h
HEp2 cells = test: Phototoxicity, Cell Titer Blue assay; type: cell-based, human; settings: 24 h
HT-29 cells = test: Phototoxicity, Cell Titer Blue assay; type: cell-based, human; settings: 24 h
A431 s.c. tumors = test: In vivo near-IR fluorescence imaging of s.c. tumor xenografts; set-up: species or system nude mice; settings: 10 mg/kg iv, up to 96 h
HT-29 s.c. tumors = test: as above; set-up: species or system nude mice; settings: HT-29 s.c. tumor, 10 mg/kg iv, up to 96 h
EGFR = EGFR (Homo sapiens, UniProt P00533); test: Surface plasmon resonance; type: binding; settings: EGFR immobilized on CM5 chip, 25 °C
[1] = in DMF; cited from earlier work

With CC(C)C[C@H](NC(=O)CCOCCOCCOCCNC(=O)COCC(=O)Nc1ccc(Oc2ccc3c4nc5nc(nc6[nH]c(nc7nc(nc([nH]4)c3c2)-c2cc(C(C)(C)C)ccc2-7)c2ccc(C(C)(C)C)cc62)-c2ccc(C(C)(C)C)cc2-5)cc1)C(=O)N[C@@H](C)C(=O)N[C@@H](CCCNC(=N)N)C(=O)N[C@@H](CC(C)C)C(=O)N[C@@H](CC(C)C)C(=O)N[C@H](C(N)=O)[C@@H](C)O [Pc 5b] the ε (Spectroscopic studies) was 5.27 M⁻¹ cm⁻¹, the “фF (fluorescence quantum yield)” value (Spectroscopic studies) was 0.11 and the Emission (Spectroscopic studies) was 682 nm. It also gave an IC50 (A431 cells) greater than 100 µM, an IC50 (Vero cells) greater than 100 µM and an IC50 (HEp2 cells) greater than 100 µM. For the same molecule, the IC50 (HT-29 cells) was greater than 100 µM, the “course of tumor fluorescence signal” value (A431 s.c. tumors) was “continued to increase to 96 h” and the “course of tumor fluorescence signal” value (HT-29 s.c. tumors) was “declined from 24 to 96 h”.

In the case of CC[C@H](C)[C@H](NC(=O)[C@@H](NC(=O)[C@H](CC(N)=O)NC(=O)[C@H](CCC(N)=O)NC(=O)[C@@H]1CCCN1C(=O)[C@@H](NC(=O)[C@H](Cc1ccc(O)cc1)NC(=O)CNC(=O)[C@H](Cc1ccc(O)cc1)NC(=O)[C@H](Cc1c[nH]c2ccccc12)NC(=O)[C@H](Cc1c[nH]cn1)NC(=O)[C@H](Cc1ccc(O)cc1)NC(=O)CNC(=O)COCC(=O)Nc1ccc(Oc2ccc3c4nc5nc(nc6[nH]c(nc7nc(nc([nH]4)c3c2)-c2cc(C(C)(C)C)ccc2-7)c2ccc(C(C)(C)C)cc62)-c2ccc(C(C)(C)C)cc2-5)cc1)[C@@H](C)O)C(C)C)C(N)=O [Pc 4b], the “Stokes' Shift” value (Spectroscopic studies) is reported as 4 nm, the ε (Spectroscopic studies) is reported as 4.85 M⁻¹ cm⁻¹ and the Absorption (Spectroscopic studies; Q band) is reported as 677 nm. For the same molecule, the “фF (fluorescence quantum yield)” value (Spectroscopic studies) was 0.10 and the Emission (Spectroscopic studies) was 681 nm.

In the case of GYHWYGYTPQNVI [EGFR-L2], the “relative binding affinity to EGFR (SPR)” value (EGFR) is reported as “higher affinity for EGFR than EGFR-L1”.

For [Zn+2].c1ccc2c(c1)-c1nc-2nc2[n-]c(nc3nc([n-]c4nc(n1)-c1ccccc1-4)-c1ccccc1-3)c1ccccc21 [ZnPc], the “Фf (fluorescence quantum yield) of the reference” value [1] is listed as 0.17.
